The text below walks through data of patent publication US7432419B2 (priority 2004, dated 2008).

Experiment [1] has as its system Xylella fastidiosa (Xf strain "Stags Leap"). The experiment is classed as cell-based.
The next experiment has as its system E. coli strain HB 101. The experiment is classed as cell-based.
The test system of experiment [2] is Xf outer-membrane protein mopB. Format: biochemical, Xylella fastidiosa.

As for Cecropin B [reference compound], the “bacterial growth inhibition (killing) of Xf” value in experiment [1] is listed as “some growth inhibition”. Moreover, the “bacterial growth inhibition (killing) of E. coli” value with E. coli strain HB 101 is “complete growth inhibition”.

B1: Elastase: Human Neutrophil Elastase (Sigma), used as surface recognition domain component (protein, listed as Homo sapiens)
chain: EIVGGRRARPHAWPFMVSLQLRGGHFCGATLIAPNFVMSAAHCVANVNVRAVRVVLGAHNLSRREPTRQVFAVQRIFENGYDPVNLLNDIVILQLNGSATINANVQVAQLPAQGRRLGNGVQCLAMGWGLLGRNRGIASVLQELNVTVVTSLCRRSNVCTLVRGRQAGVCFGDSGSPLVCNGLIHGIASFVRGGCASGLYPDAFAPVAQFVNWIDSIIQ
modifications: truncated neutrophil elastase protein
notes: Human Neutrophil Elastase (Sigma), used as surface recognition domain component
Turning to B1, in experiment [1], the “bacterial growth inhibition (killing) of Xf” value is recorded as “insufficient to inhibit bacterial growth” and the “effect of elastase on Cecropin B-stimulated lysis of Xf cells” value is “greatly enhances”. Moreover, the “bacterial growth inhibition (killing) of E. coli” value in the experiment with E. coli strain HB 101 was “insufficient to inhibit bacterial growth”. Further, the “digestion of purified mopB” value in experiment [2] is “at least partially digested”.
